B1: SetA(480-644) (domain or fragment)
chain: GAGTEVEAHESTVKEQEIISQNTVGEEGTKEKNSVQLASENSSDEKIKTAHDLIDEIIQDVIQLDGKLGLLGGNTRQLEDGRVINIPNGAAMIFDDYKKYKQGELTAESALESMIKIAKLSNQLNRHTFFNQRQPETGQFYKKVAAIDLQTTIAAEYDNNHGLRI
B2: SetA(480-644) (domain or fragment)
chain: B1 chain
B3: (His)10-MBP-DotL(656-783)–IcmSW–LvgA (complex)
chain 1: GQNEPEPVEDIVEEEVEGALTIFSKLRIDPNAPPILVADKEVFSEPLLPINETRNQMITIERLAGAKDKYAGTVANELIKDFQIATSYPPEERDVIDVQELTGIIRDLSAKISAEREKANKKAAEELT
chain 2: MERDISKCMAKIAASMNAKFYLNDRFVSFDEVFSETGLLPAIAKRADQLCSLCLGYGLGATYDESEGALLGIRVVFDEVTPNVLRLLCMTDVMNELIQGGPSRDYTPLDELMYD
chain 3: MPDLSHEASAKYWFEYLDPMIYRVITFMESVENWTLDGNPELEEAMKQLGQELDDIEKIDLGLLAEEDKFIRIVGNIKSGRGLRLLQAIDTVHPGSASRVLIHAEETSLSSSDPAGFFLKRNIVFERLRLLSRVFCQYRLKLVLRALEGDE
chain 4: MADGDIEIKAGFVDTDLDDRKLTMIDDLNNPLAIVERVYLIWWHWADFHLHVISPHIDTITPAIVIEPELIPGSNDHEFVYSIHDSGSKLSTSKSQDMFSAGMSMCKLFYTIEKMVYILVERLKSGGVSMEAEVQIAFAGHEIAQRKAFESIINLPYNVVVTNFDPGIWGEKYLQNVKRLADKGYGYPPESPRKIYMHPVSSGTTARK
notes: copies: + + +

What was measured:
[1] = biological target: the molecule itself; experiment: SEC; […]; 20 mM Tris-HCl (pH 7.5) plus 100 mM NaCl or 300 mM NaCl; […]
[2] = biological target: B3; experiment: native gel or EMSA; conditions: both partners purified
[3] = biological target: VpdB(11-590) (Legionella pneumophila, UniProt Q5ZW60 11-590); experiment: BLI; conditions: both partners purified
[4] = biological target: T1, SetA (Legionella pneumophila, UniProt Q5ZU30 1-644); experiment: native gel or EMSA; conditions: both partners purified
T1 sequence: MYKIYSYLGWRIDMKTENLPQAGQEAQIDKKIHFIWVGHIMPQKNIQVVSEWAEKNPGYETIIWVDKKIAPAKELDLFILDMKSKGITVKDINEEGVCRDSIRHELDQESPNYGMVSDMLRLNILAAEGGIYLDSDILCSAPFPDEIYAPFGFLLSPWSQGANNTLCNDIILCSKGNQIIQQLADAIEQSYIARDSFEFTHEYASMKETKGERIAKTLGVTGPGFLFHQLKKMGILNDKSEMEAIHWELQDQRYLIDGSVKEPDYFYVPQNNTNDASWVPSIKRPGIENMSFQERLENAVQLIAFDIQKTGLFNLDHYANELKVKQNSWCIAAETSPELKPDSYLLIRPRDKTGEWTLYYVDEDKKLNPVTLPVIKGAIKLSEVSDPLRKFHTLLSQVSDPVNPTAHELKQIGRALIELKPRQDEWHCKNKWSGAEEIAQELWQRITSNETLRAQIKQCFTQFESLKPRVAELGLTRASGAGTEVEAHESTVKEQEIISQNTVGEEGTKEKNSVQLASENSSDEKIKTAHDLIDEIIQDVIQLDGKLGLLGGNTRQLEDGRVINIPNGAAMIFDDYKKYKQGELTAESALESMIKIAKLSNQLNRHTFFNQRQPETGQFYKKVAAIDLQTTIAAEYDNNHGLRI

With B1 the “stoichiometry N” value [1] was 2.

B2: binds [2].

For B3, the Kd [3] was about 400 nM and the binding result [4] was “binds”.

ENETLVSSFKQRLQNIKG [(His)10-YFP-SidH(2183-2200)]: binds [2].

Reference: PMC7251119 (Nature Communications, 2020)
